Laboratory results reported in paper PMC11969024, “Development of chemokine network inhibitors using combinatorial saturation mutagenesis” (Communications Biology, 2025).

B1: peptide HD2 (from tick evasin EVA4) / CXCL13 (biotinylated, synthetic) (parent)
chain 1: EEDDYTAYAPLTCYFT
chain 2: VLEVYYTSLRCRCVQESSVFIPRRFIDRIQILPRGNGCPRKEIIVWKKNKSIVCVDPQAEWIQRMMEVLRKRSSSTLPVPVFKRKIP
B2: peptide HD2 (from tick evasin EVA4) / CCL19 (biotinylated, synthetic) (parent)
chain 1: EEDDYTAYAPLTCYFT
chain 2: GTNDAEDCCLSVTQKPIPGYIVRNFHYLLIKDGCRVPAVVFTTLRGRQLCAPPDQPWVERIIQRLQRTSAKMKRRSS

Variants of: B1
Details: with CXCL13 (biotinylated, synthetic); scale: log2
Variant chain 1 EEDDYTAYCPLTCYFT [chain 1 A9C] has an enrichment of -8.86. chain 1 EEDDYTAYDPLTCYFT [chain 1 A9D] was tested, and the enrichment was -7. With chain 1 CEDDYTAYAPLTCYFT [chain 1 E1C] the enrichment was -8.53. Variant chain 1 ECDDYTAYAPLTCYFT [chain 1 E2C] has an enrichment of -8.79. chain 1 ERDDYTAYAPLTCYFT [chain 1 E2R] showed an enrichment of -5.9. Work on chain 1 EKDDYTAYAPLTCYFT [chain 1 E2K] yielded an enrichment of -3.92. In the case of chain 1 EEDRYTAYAPLTCYFT [chain 1 D4R], the enrichment is reported as -5.86. With chain 1 EEDTYTAYAPLTCYFT [chain 1 D4T] the enrichment was -6.65. chain 1 EEDKYTAYAPLTCYFT [chain 1 D4K] was tested, and the enrichment was -5.65. With chain 1 EEDCYTAYAPLTCYFT [chain 1 D4C] the enrichment was -8.01. chain 1 EEDDYTAYACLTCYFT [chain 1 P10C] gave an enrichment of -8.5. chain 1 EEDDYTAYAILTCYFT [chain 1 P10I] was tested, and the enrichment was -7.21. Variant chain 1 EEDDYTAYARLTCYFT [chain 1 P10R] has an enrichment of -7.85. chain 1 EEDDYTAYAFLTCYFT [chain 1 P10F] was tested, and the enrichment was -8.19. Work on chain 1 EEDDYTAYAYLTCYFT [chain 1 P10Y] yielded an enrichment of -7.34. Variant chain 1 EEDDYTAYAKLTCYFT [chain 1 P10K] has an enrichment of -5.74. chain 1 EEDDYTAYATLTCYFT [chain 1 P10T] showed an enrichment of -6.64. chain 1 EEDDYTAYAQLTCYFT [chain 1 P10Q] showed an enrichment of -5.17.

Variants of: B2
Details: with CCL19 (biotinylated, synthetic); scale: log2
chain 1 EEDHYTAYAPLTCYFT [chain 1 D4H] showed an enrichment of -6.74. With chain 1 EEDEYTAYAPLTCYFT [chain 1 D4E] the enrichment was -4.92. chain 1 EEDGYTAYAPLTCYFT [chain 1 D4G] was tested, and the enrichment was -5.19. chain 1 EEDNYTAYAPLTCYFT [chain 1 D4N] showed an enrichment of -6.94. chain 1 EEDTYTAYAPLTCYFT [chain 1 D4T] gave an enrichment of -6.85. For chain 1 EEDRYTAYAPLTCYFT [chain 1 D4R], the enrichment was -6.06. Work on chain 1 EQDDYTAYAPLTCYFT [chain 1 E2Q] yielded an enrichment of -3.87. In the case of chain 1 EHDDYTAYAPLTCYFT [chain 1 E2H], the enrichment is reported as -6.61. chain 1 EPDDYTAYAPLTCYFT [chain 1 E2P] was tested, and the enrichment was -6.02. With chain 1 EKDDYTAYAPLTCYFT [chain 1 E2K] the enrichment was -4.12. With chain 1 EEDDYTCYAPLTCYFT [chain 1 A7C] the enrichment was -8.81. Work on chain 1 EEDDYTAEAPLTCYFT [chain 1 Y8E] yielded an enrichment of -5.16. chain 1 EEDDYTACAPLTCYFT [chain 1 Y8C] gave an enrichment of -8.65. chain 1 EEDDYTATAPLTCYFT [chain 1 Y8T] was tested, and the enrichment was -7.46. Variant chain 1 EEDDYTAGAPLTCYFT [chain 1 Y8G] has an enrichment of -7.68. For chain 1 EEDDYTAQAPLTCYFT [chain 1 Y8Q], the enrichment was -5.33. chain 1 EEDDYTARAPLTCYFT [chain 1 Y8R] showed an enrichment of -7.16. In the case of chain 1 EEDDYTAIAPLTCYFT [chain 1 Y8I], the enrichment is reported as -8.35. chain 1 EEDDYTAAAPLTCYFT [chain 1 Y8A] gave an enrichment of -7.75. chain 1 EEDDYTAKAPLTCYFT [chain 1 Y8K] was tested, and the enrichment was -5.04. Variant chain 1 EEDDYTAYAPETCYFT [chain 1 L11E] has an enrichment of -7.14. For chain 1 EEDDYTAYAPDTCYFT [chain 1 L11D], the enrichment was -8.06. In the case of chain 1 EEDDYTAYAPNTCYFT [chain 1 L11N], the enrichment is reported as -7.42. chain 1 EEDDYTAYAPLGCYFT [chain 1 T12G] gave an enrichment of -9.27. chain 1 EEDDYTAYAPLQCYFT [chain 1 T12Q] was tested, and the enrichment was -6.6. With chain 1 EEDDYTAYDPLTCYFT [chain 1 A9D] the enrichment was -7.2. For chain 1 EEDDYTAYHPLTCYFT [chain 1 A9H], the enrichment was -7.18. Work on chain 1 EEDDYTAYKPLTCYFT [chain 1 A9K] yielded an enrichment of -5.6. chain 1 EEDDYTAYQPLTCYFT [chain 1 A9Q] was tested, and the enrichment was -6.19. chain 1 EEDDYTAYAPLTCYNT [chain 1 F15N] showed an enrichment of -5.7. For chain 1 EEDDYTAYAPLTCYIT [chain 1 F15I], the enrichment was -5.23. Variant chain 1 EEDDYTAYAPLTCYFP [chain 1 T16P] has an enrichment of -6.44. Variant chain 1 QEDDYTAYAPLTCYFT [chain 1 E1Q] has an enrichment of -3.57. In the case of chain 1 CEDDYTAYAPLTCYFT [chain 1 E1C], the enrichment is reported as -8.72. For chain 1 EEDDYTAYAALTCYFT [chain 1 P10A], the enrichment was -7.68. Work on chain 1 EEDDYTAYAELTCYFT [chain 1 P10E] yielded an enrichment of -6.87. For chain 1 EEDDYTAYAKLTCYFT [chain 1 P10K], the enrichment was -5.94. chain 1 EEDDYTAYAQLTCYFT [chain 1 P10Q] showed an enrichment of -5.36. With chain 1 EEDDYTAYARLTCYFT [chain 1 P10R] the enrichment was -8.05. In the case of chain 1 EEDDYTAYACLTCYFT [chain 1 P10C], the enrichment is reported as -8.69. chain 1 EEDDYTAYANLTCYFT [chain 1 P10N] was tested, and the enrichment was -6.99. For chain 1 EEDDYTAYASLTCYFT [chain 1 P10S], the enrichment was -8.17. chain 1 EEDDYTAYAILTCYFT [chain 1 P10I] showed an enrichment of -7.41. chain 1 EEDDYTAYAHLTCYFT [chain 1 P10H] was tested, and the enrichment was -6.93. Work on chain 1 EEDDETAYAPLTCYFT [chain 1 Y5E] yielded an enrichment of -2.46. With chain 1 EEDDVTAYAPLTCYFT [chain 1 Y5V] the enrichment was -8.24. chain 1 EEDDRTAYAPLTCYFT [chain 1 Y5R] was tested, and the enrichment was -6.02. Variant chain 1 EEDDPTAYAPLTCYFT [chain 1 Y5P] has an enrichment of -5.7. In the case of chain 1 EEDDATAYAPLTCYFT [chain 1 Y5A], the enrichment is reported as -6.04. Variant chain 1 EEDDQTAYAPLTCYFT [chain 1 Y5Q] has an enrichment of -4.33. With chain 1 EEDDKTAYAPLTCYFT [chain 1 Y5K] the enrichment was -4.57. Work on chain 1 EEDDYTAYAPLTCTFT [chain 1 Y14T] yielded an enrichment of -7.91. chain 1 EEDDYTAYAPLTCCFT [chain 1 Y14C] showed an enrichment of -7.29. In the case of chain 1 EEDDYTAYAPLTCSFT [chain 1 Y14S], the enrichment is reported as -8.64. chain 1 EEDDYTAYAPLTCDFT [chain 1 Y14D] showed an enrichment of -6.5. In the case of chain 1 EEDDYTAYAPLTCEFT [chain 1 Y14E], the enrichment is reported as -7.73. For chain 1 EEDDYTAYAPLTCQFT [chain 1 Y14Q], the enrichment was -7.02. With chain 1 EEDDYTAYAPLTCNFT [chain 1 Y14N] the enrichment was -5.87. With chain 1 EEDDYTAYAPLTHYFT [chain 1 C13H] the enrichment was -7.62. Variant chain 1 EEDDYTAYAPLTMYFT [chain 1 C13M] has an enrichment of -8.49. chain 1 EEDDYTAYAPLTTYFT [chain 1 C13T] showed an enrichment of -8.2. Work on chain 1 EEDDYTAYAPLTAYFT [chain 1 C13A] yielded an enrichment of -9.6. With chain 1 EEDDYTAYAPLTGYFT [chain 1 C13G] the enrichment was -9.4. In the case of chain 1 EEDDYTAYAPLTYYFT [chain 1 C13Y], the enrichment is reported as -7.72. Variant chain 1 EEDDYTAYAPLTVYFT [chain 1 C13V] has an enrichment of -10.3. chain 1 EEDDYTAYAPLTFYFT [chain 1 C13F] was tested, and the enrichment was -7.6. chain 1 EEDDYTAYAPLTRYFT [chain 1 C13R] showed an enrichment of -9.52. chain 1 EEDDYTAYAPLTIYFT [chain 1 C13I] showed an enrichment of -7.15. In the case of chain 1 EEDDYTAYAPLTQYFT [chain 1 C13Q], the enrichment is reported as -8.35. Variant chain 1 EEQDYTAYAPLTCYFT [chain 1 D3Q] has an enrichment of -3.96. For chain 1 EERDYTAYAPLTCYFT [chain 1 D3R], the enrichment was -6.43. chain 1 EEADYTAYAPLTCYFT [chain 1 D3A] gave an enrichment of -6. In the case of chain 1 EEIDYTAYAPLTCYFT [chain 1 D3I], the enrichment is reported as -8.83. For chain 1 EEMDYTAYAPLTCYFT [chain 1 D3M], the enrichment was -6.81. chain 1 EEKDYTAYAPLTCYFT [chain 1 D3K] gave an enrichment of -4.33. For chain 1 EECDYTAYAPLTCYFT [chain 1 D3C], the enrichment was -8.87. For chain 1 EETDYTAYAPLTCYFT [chain 1 D3T], the enrichment was -6.58.
